Test results from article PMC10175485, “Detecting recurrent passenger mutations in melanoma by targeted UV damage sequencing”.

Molecular target: T1, ETS1 DNA-binding domain (Ets-1 ΔN280) (Mus musculus (murine), UniProt P27577 281-440, del1-280)
T1 sequence: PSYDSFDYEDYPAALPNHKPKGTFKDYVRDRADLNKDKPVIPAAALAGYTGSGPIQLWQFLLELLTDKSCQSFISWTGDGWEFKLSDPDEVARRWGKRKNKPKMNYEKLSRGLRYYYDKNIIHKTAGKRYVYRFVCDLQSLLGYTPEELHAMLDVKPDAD
Assay: EMSA; not stated in the material (as described previously, ref 25)
Conditions: protein: recombinant; tags: C-terminal His6 removed by thrombin; label: 5' 32P on strand 1 (STK19-RVS); 5' biotin on strand 2 (STK19-FWD); blunt

B1: STK19 D89 oligonucleotide (STK19-RVS/STK19-FWD) (dsDNA)
DNA 1: CCTGAAAATAGGGTCTTCCGGCGCAGAGCA
DNA 2: TGCTCTGCGCCGGAAGACCCTATTTTCAGG
- binding result: binds
